Test results reported in US20250136696A1 (HARBOUR BIOMED SHANGHAI, published 2025).
Positions count from the first letter of the chain named. Names and notes keep the numbering of the source.

What was measured:
[1] = target: T1, human B7-H7 on the cell surface (human, UniProt Q9UM44 23-414); assay: flow cytometry on LS180 cells, expression supernatant diluted 1:1, 1:10, 1:100
T1 construct: whole, on cells; also called hB7-H7; hu B7-H7
T1 sequence (looked up): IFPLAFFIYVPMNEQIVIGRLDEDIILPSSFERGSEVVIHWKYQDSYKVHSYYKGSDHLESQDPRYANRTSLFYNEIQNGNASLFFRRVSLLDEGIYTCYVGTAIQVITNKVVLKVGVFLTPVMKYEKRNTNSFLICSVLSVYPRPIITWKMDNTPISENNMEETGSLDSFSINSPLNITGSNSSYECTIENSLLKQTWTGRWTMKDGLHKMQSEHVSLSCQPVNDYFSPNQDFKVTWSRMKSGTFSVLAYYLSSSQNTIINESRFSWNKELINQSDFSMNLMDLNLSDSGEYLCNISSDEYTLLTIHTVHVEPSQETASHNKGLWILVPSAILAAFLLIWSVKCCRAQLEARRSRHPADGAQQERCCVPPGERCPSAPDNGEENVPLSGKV

[2] = target: T1, human B7-H7 on the cell surface; assay: flow cytometry, LS180 cells
Experimental: This example was intended to study the in vitro activity of H2L2 monoclonal antibodies against human B7-H7 in binding to human/cynomolgus monkey B7-H7. Since homologous molecules of B7-H7 were not present in mice, the detection was not performed. […] The cells were adjusted to a cell density of 1×10⁶ cells/mL, respectively. The cells were seeded in a 96-well V-bottom plate (Corning, #3894) at 100 μL/well, and the antibody to be tested at 2× final concentration with 3-fold concentration gradient dilution was then added at 100 μL/well. The cells were incubated at 4° C. for 2 hours in the dark. After the incubation, the cells were rinsed twice by adding pre-chilled PBS containing 2% BSA at 100 μl/well, and centrifuged at 500 g at 4° C. for 5 minutes, and the supernatant was discarded. […] The cells were washed twice by adding pre-chilled PBS containing 2% BSA at 100 μL/well, and centrifuged at 500 g at 4° C. for 5 minutes, and the supernatant was discarded. Finally, the cells were resuspended in pre-chilled PBS containing 2% BSA at 200 μL/well, and the fluorescence signal values were read using an ACEA Novocyte3000 flow cytometer.

B1: PR004479 (antibody, human IgG1, kappa, L234A L235A, V domains shown)
VH: QVQLVESGGGVVQPGRSLRLSCAASGFTFSDYGIHWVRQAPGKGLEWVAVIWYEGSDKYYADSVRGRFTISRDNSKNTLSLQMNSLRVEDTAVYYCARDRSSGAMGYFVYWGQGTLVTVSS
VL: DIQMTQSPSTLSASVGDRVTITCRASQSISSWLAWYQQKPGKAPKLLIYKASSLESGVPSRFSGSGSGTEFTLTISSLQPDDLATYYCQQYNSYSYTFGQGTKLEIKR
notes: Variant of PR003249, H:D54E; Human IgG1 LALA; expressed supernatant only
binding result [1]: binds

B2: PR004486 (antibody, human IgG1, kappa, L234A L235A, V domains shown)
VH: B1 VH with E54D
VL: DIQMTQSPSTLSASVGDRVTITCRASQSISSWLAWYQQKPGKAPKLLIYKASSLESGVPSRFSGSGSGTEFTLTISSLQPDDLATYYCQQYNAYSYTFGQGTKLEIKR
notes: Variant of PR003249, L:S93A; Human IgG1 LALA; expressed supernatant only
binding result [1]: binds

B3: PR004481 (antibody, human IgG1, kappa, L234A L235A, V domains shown)
VH: B1 VH
VL: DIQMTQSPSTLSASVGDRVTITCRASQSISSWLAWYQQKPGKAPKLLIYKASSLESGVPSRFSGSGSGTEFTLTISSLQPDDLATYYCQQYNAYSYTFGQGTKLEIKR
notes: Variant of PR003249, H:D54E; L:S93A; Human IgG1 LALA; expressed supernatant only
binding result [1]: binds

B4: PR004484 (antibody, human IgG1, kappa, L234A L235A, V domains shown)
VH: B1 VH with E54D, G55A
VL: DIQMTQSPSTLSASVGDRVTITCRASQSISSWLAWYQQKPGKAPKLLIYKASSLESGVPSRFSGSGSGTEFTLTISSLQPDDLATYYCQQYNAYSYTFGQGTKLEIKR
notes: Variant of PR003249, H:G55A; L:S93A; Human IgG1 LALA
EC50 [2]: 0.04 nM | Maximum MFI [2]: 24600 MFI

B5: PR004482 (antibody, human IgG1, kappa, L234A L235A, V domains shown)
VH: B1 VH with E54D, G55A
VL: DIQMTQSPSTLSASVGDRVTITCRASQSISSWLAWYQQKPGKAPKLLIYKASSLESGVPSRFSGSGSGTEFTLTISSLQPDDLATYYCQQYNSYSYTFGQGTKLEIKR
notes: Variant of PR003249, H:G55A; Human IgG1 LALA; expressed supernatant only
binding result [1]: binds

B6: PR004480 (antibody, human IgG1, kappa, L234A L235A, V domains shown)
VH: B1 VH
VL: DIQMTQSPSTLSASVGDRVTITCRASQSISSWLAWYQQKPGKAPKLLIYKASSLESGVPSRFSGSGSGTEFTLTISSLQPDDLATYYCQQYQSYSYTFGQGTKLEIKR
notes: Variant of PR003249, H:D54E; L:N92Q; Human IgG1 LALA; expressed supernatant only
binding result [1]: binds

B7: PR004483 (antibody, human IgG1, kappa, L234A L235A, V domains shown)
VH: B1 VH with E54D, G55A
VL: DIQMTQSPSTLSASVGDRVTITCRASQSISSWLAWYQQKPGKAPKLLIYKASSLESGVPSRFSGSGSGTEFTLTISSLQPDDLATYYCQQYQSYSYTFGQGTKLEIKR
notes: Variant of PR003249, H:G55A; L:N92Q; Human IgG1 LALA
EC50 [2]: 0.044 nM | Maximum MFI [2]: 25100 MFI

B8: PR004485 (antibody, human IgG1, kappa, L234A L235A, V domains shown)
VH: B1 VH with E54D
VL: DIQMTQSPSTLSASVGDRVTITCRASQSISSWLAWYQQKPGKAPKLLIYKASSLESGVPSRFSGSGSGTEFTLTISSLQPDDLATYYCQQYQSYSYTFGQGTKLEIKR
notes: Variant of PR003249, L:N92Q; Human IgG1 LALA; expressed supernatant only
binding result [1]: binds

B9: PR004487 (antibody, human IgG1, kappa, L234A L235A, V domains shown)
VH: QVQLVESGGGVVQPGRSLRLSCAASGFTFSNYGMHWVRQVPGKGLEWVAVIWYEGSEKDYADSVKGRFTISRDNSKNTLYLQMNSLRVEDTAVYYCAKDLISGIYYVDHWGQGTLVTVSS
VL: DIQMTQSPSSLSASVGDRVTITCRASQGISNYLAWYQQKPGKVPKLLIYAASTLQSGVPSRFSGSGSGTDFTLTISSLQPEDVATYYCQKYNSAPFTFGPGTKVDIKR
notes: Variant of PR003259, H:D54E; Human IgG1 LALA; expressed supernatant only
binding result [1]: binds

B10: PR004493 (antibody, human IgG1, kappa, L234A L235A, V domains shown)
VH: B9 VH with E54D
VL: B9 VL with N92Q
notes: Variant of PR003259, L:N92Q; Human IgG1 LALA; expressed supernatant only
binding result [1]: binds

B11: PR004489 (antibody, human IgG1, kappa, L234A L235A, V domains shown)
VH: B9 VH
VL: B9 VL with S93A
notes: Variant of PR003259, H:D54E; L:S93A; Human IgG1 LALA; expressed supernatant only
binding result [1]: binds

B12: PR004494 (antibody, human IgG1, kappa, L234A L235A, V domains shown)
VH: B9 VH with E54D
VL: B9 VL with S93A
notes: Variant of PR003259, L:S93A; Human IgG1 LALA; expressed supernatant only
binding result [1]: binds

B13: PR004492 (antibody, human IgG1, kappa, L234A L235A, V domains shown)
VH: B9 VH with E54D, G55A
VL: B9 VL with S93A
notes: Variant of PR003259, H:G55A; L:S93A; Human IgG1 LALA
EC50 [2]: 0.052 nM | Maximum MFI [2]: 22900 MFI

B14: PR004490 (antibody, human IgG1, kappa, L234A L235A, V domains shown)
VH: B9 VH with E54D, G55A
VL: B9 VL
notes: Variant of PR003259, H:G55A; Human IgG1 LALA; expressed supernatant only
binding result [1]: binds

B15: PR004488 (antibody, human IgG1, kappa, L234A L235A, V domains shown)
VH: B9 VH
VL: B9 VL with N92Q
notes: Variant of PR003259, H:D54E; L:N92Q; Human IgG1 LALA; expressed supernatant only
binding result [1]: binds

B16: PR004491 (antibody, human IgG1, kappa, L234A L235A, V domains shown)
VH: B9 VH with E54D, G55A
VL: B9 VL with N92Q
notes: Variant of PR003259, H:G55A; L:N92Q; Human IgG1 LALA
EC50 [2]: 0.066 nM | Maximum MFI [2]: 22800 MFI
